From patent publication EP4806919A1 (Cells & Genes Biotech (Shanghai) Co., Ltd, dated 2026)
Several values for one entry are separate records, joined by “and”; a condition that tells them apart may be missing. Equal values may be shown once.

Legend:
[1] = target: BCMA on cell surface of BCMA-positive cells (NCI-H929; RPMI-8226) (UniProt Q02223); test: flow cytometry on NCI-H929 cells, control without nanobody
[2] = target: Human BCMA-His recombinant protein (human) (UniProt Q02223); test: phage ELISA, antigen coated 100 ng/well, Anti-M13 HRP
[3] = target: Cyno BCMA-His antigen (cyno (monkey)); test: as above
Sequence of Cyno BCMA-His antigen (cyno (monkey)) (chain, as listed by the source): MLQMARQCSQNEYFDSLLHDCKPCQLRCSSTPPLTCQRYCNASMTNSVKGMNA

[4] = target: BCMA on cell surface of BCMA-positive cells (NCI-H929; RPMI-8226) (UniProt Q02223); test: flow cytometry on NCI-H929 cells, antibody 10 ug/ml, PE anti-human Fc
[5] = target: T1, Human BCMA-His recombinant protein (human, UniProt Q02223 1-54); test: ELISA, Human-BCMA-His coated 200 ng/well
T1 construct: Supplied reagent (Chengdu Shengshi Junlian Biotechnology, Cat# BCA-H522y); also called Cat# BCA-H522y; not shown: His tag
T1 sequence (looked up): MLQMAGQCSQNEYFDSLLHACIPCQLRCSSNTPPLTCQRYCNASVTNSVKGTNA

[6] = target: BCMA on cell surface of BCMA-positive cells (NCI-H929; RPMI-8226) (UniProt Q02223); test: flow cytometry on NCI-H929 cells, antibody 10 ug/mL
[7] = target: T1, Human BCMA-His recombinant protein; test: ELISA, Human BCMA His coated 200 ng/well, anti-human Fc HRP

For hIgG Fc-PE (antibody), which NCI-H929 Positive Rate% [1] is on record?
Its NCI-H929 Positive Rate% is 0.04%.

B1: BC-HC-15 (positive phage clone, VHH displayed on phage) (VHH)
VHH: EVQLVQSGGGSVQAGGSLRLSCAASGGDISSTFMGWFRQAPGKEREGVAAIYTGDGTTDYADSVKGRFTIAQDNAKNTVYLEMSRLKPEDTALYYCATGLDGSGSVFSPRSFRYWGQGTQVTVSS
Which results are given for B1?
OD (phage ELISA, human) [2]: 2.11 OD450; OD (phage ELISA, monkey) [3]: 1.79 OD450

B2: BC-HC-15 nanobody, recombinant VHH-hIgG1Fc antibody (Fc fusion)
chain: B1 VHH
notes: also called VHH-hFC; not shown: human IgG1 Fc (hIgG1Fc) from the pVHH-hIgG1Fc expression plasmid
How did the NCI-H929 Positive Rate% [4] turn out when B2 was run?
The NCI-H929 Positive Rate% was 99.9%.

What about the EC50 [5] of the same molecule?
Its EC50 is less than 10 nM.

What about the positive binding rate [6] of the same molecule?
The positive binding rate was greater than 95%.

And the EC50 [7]?
The EC50 was 0.605 µg/mL and 7.57 nM.
